Ends that are not written are not given here.
Tests used:
[1] = cited from earlier work
[2] = in vivo; cited from earlier work

Q: With HAEGTFTSDVSSYLEGQAAKEFIAWLVKGRG [GLP-1] as the substance, how does the serum half-life [1] read?
A: The serum half-life was 3 to 5 min.

Q: And the “half-life of GLP-1 administered alone” value [2]?
A: The value was 3 to 5 min.

Q: With “^7HAEGT FTSDVSSYLEGQAAKEFICWLCKGRG^37GG C GGGGG GGGGG (HAEGTFTSDVSSYLEGQAAKEFICWLCKGRGGGCGGGGGGGGGG; disulfide (positions not given here); also: contains disulfide bonds, places not given here (three Cys)) [SEQ ID NO 58]” as the substance, how does the “half-life in human serum” value read?
A: Its value is greater than 24 h.

Q: With “^7HAEGT FTSDVSSYLEGQAAKEFICWLCKGRG^37GG C GGGGG GGGGGGGGGG (HAEGTFTSDVSSYLEGQAAKEFICWLCKGRGGGCGGGGGGGGGGGGGGG; disulfide (positions not given here); also: contains disulfide bonds, places not given here (three Cys)) [SEQ ID NO 59]” as the substance, how does the “half-life in human serum” value read?
A: Its value is greater than 24 h.
